From US7985736B2, “High throughput screen utilizing newly discovered intramolecular neuronal calcium channel interactions to discover new analgesics” (The John Hopkins University, priority 2004, dated 2011)
Ends that are not written are not given here.

Key:
[1] = biological target: T1, I-IIB-YFP (Homo sapiens, UniProt Q00975); experiment: Live-cell FRET two-hybrid assay versus I-IIB-YFP in HEK293 cells; assay type: binding; settings: for FRmax: 1:1 binding-model fit, CFP-tagged peptide versus I-IIB-YFP; for Kd,EFF / affinity for I-IIB (FRET), in words: relative dissociation constant, HEK293 cells
T1 construct: I-IIB residues, 357-482; expressed in transfected cells; host or cells: HEK293
T1 sequence (Q00975 357-482): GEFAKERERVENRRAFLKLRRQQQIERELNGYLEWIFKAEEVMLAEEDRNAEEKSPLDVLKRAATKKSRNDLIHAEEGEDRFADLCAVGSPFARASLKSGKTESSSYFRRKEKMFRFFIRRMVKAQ
Text: To confirm preferential interaction of NTB with I-IIB a live-cell FRET two-hybrid assay was used (Erickson et al., 2003), in which NTB, NTC, I-IIB, and I-IIC were fused to either CFP or YFP, and the resulting fusion constructs expressed pair-wise in mammalian HEK293 cells. Given a Forster distance of ˜50 Å for the CFP/YFP pair (Patterson et al., 2000), the presence of FRET in individual cells would give a strong indication of interpeptide binding in the mammalian intracellular milieu. This indication is generally characterized by a low false-positive rate (Erickson et al., 2003), so that FRET assays provide a useful complement to yeast two-hybrid assays (Allen et al., 1995). […] SCFP (the signal derived from an image obtained with the CFP filter cube) is selective for CFP fluorescence and thereby gives an optical measure of NTB-CFP expression. Analogously, the SYFP signal, derived from preferential excitation and detection of YFP, estimates I-IIB-YFP levels. Finally, the SFRET signal reflects I-IIB-YFP fluorescence stimulated by FRET transfer from NTB-CFP, as well as secondary cross-talk signals. These three signals can be incorporated within a three-cube FRET algorithm to determine the strength of FRET interaction (“FRET ratio,” FR), independently of cross-talk (Erickson et al., 2001). FR adopts a value of unity in the absence of FRET and grows linearly with increasing FRET efficiency (Erickson et al., 2003). FR values for many individual cells are plotted as circles in FIG. 2Eb, with numerous determinations clearly greater than unity. Alternatively, FR values specified by a YFP-photobleaching methodology were also elevated above unity (triangles) (Bastiaens and Jovin, 1996). […] Consistent with yeast two-hybrid assays, then, FRET assays confirmed a selective propensity for NTB and I-IIB segments to associate.
Human m2 muscarinic acetylcholine receptor (AF498916) was engineered to reduce desensitization (Pals-Rylaarsdam and Hosey, 1997). QuikChange (Stratagene, La Jolla, Calif.) introduced cluster mutations, yielding m2R: residues 286-290 (STSVS/AAAVA), residues 307-311 (TVSTS/AVAAA). For FRET assays, base templates were ECFP/EYFP-tagged calmodulin constructs in pcDNA3 (Invitrogen, Carlsbad, Calif.), as described (Erickson et al., 2001). PCR-amplified channel segments or G proteins were substituted for calmodulin via upstream EcoRI and downstream NheI sites, creating in-frame fusions with fluorophore (ECFP/EYFP C-terminal to test molecules). NTC residues, 1-53; I-IIB residues, 357-482; and I-IIC residues, 436-554.
Experiments were performed mostly as previously described (Erickson et al., 2001; Erickson et al., 2003). Briefly, the FRET Ratio (FR) is the fractional increase in YFP emission due to FRET. […] For donor-dequenching analysis, EEFF is calculated as EEFF=^1−CFPpre/CFPpost, where CFPpre and CFPpost are the CFP emissions before/after 3 min YFP photobleaching. FR is determined by FR=(EEFF/[EYFP/ECFP])+1, where EYFP/ECFP is ratio of YFP and CFP molar extinction coefficients through 440 nm excitation bandpass of FRET cube (0.0574). For binding model analysis, Kd,EFF is the effective dissociation constant, related to actual Kd via filter/microscope optical characteristics. […]
Experiments were performed as described previously for the most part (Erickson et al., 2001; Erickson et al., 2003). Specifically, for quantitative analysis, all fluorescence from single cells were isolated through a pinhole in the image plane, and detected by photo-multiplier tube. In all three-cube FRET experiments, CFP levels were below a threshold where spurious, concentration-dependent FRET became significant (Stratton et al., 2004). Similarly, for donor-dequenching experiments, YFP levels were below an analogous threshold. […]

[2] = biological target: T2, N-type (α1B) Ca2+ channels (Homo sapiens, UniProt Q00975); experiment: Whole-cell G/Q analysis and prepulse facilitation of recombinant N-type channels coexpressed with peptide in HEK293 cells; assay type: cell-based; settings: for Effect on G/Q slope (Gmax-Qmax relation), with Gβγ: peptide coexpressed with channels and Gβγ, Gmax after 100 mV prepulse
T2 construct: transferred by EcoRI and Bgl II sites into the full-length α1B construct; expressed in transfected cells; host or cells: HEK293
T2 sequence (Q00975 whole entry, other chains not shown): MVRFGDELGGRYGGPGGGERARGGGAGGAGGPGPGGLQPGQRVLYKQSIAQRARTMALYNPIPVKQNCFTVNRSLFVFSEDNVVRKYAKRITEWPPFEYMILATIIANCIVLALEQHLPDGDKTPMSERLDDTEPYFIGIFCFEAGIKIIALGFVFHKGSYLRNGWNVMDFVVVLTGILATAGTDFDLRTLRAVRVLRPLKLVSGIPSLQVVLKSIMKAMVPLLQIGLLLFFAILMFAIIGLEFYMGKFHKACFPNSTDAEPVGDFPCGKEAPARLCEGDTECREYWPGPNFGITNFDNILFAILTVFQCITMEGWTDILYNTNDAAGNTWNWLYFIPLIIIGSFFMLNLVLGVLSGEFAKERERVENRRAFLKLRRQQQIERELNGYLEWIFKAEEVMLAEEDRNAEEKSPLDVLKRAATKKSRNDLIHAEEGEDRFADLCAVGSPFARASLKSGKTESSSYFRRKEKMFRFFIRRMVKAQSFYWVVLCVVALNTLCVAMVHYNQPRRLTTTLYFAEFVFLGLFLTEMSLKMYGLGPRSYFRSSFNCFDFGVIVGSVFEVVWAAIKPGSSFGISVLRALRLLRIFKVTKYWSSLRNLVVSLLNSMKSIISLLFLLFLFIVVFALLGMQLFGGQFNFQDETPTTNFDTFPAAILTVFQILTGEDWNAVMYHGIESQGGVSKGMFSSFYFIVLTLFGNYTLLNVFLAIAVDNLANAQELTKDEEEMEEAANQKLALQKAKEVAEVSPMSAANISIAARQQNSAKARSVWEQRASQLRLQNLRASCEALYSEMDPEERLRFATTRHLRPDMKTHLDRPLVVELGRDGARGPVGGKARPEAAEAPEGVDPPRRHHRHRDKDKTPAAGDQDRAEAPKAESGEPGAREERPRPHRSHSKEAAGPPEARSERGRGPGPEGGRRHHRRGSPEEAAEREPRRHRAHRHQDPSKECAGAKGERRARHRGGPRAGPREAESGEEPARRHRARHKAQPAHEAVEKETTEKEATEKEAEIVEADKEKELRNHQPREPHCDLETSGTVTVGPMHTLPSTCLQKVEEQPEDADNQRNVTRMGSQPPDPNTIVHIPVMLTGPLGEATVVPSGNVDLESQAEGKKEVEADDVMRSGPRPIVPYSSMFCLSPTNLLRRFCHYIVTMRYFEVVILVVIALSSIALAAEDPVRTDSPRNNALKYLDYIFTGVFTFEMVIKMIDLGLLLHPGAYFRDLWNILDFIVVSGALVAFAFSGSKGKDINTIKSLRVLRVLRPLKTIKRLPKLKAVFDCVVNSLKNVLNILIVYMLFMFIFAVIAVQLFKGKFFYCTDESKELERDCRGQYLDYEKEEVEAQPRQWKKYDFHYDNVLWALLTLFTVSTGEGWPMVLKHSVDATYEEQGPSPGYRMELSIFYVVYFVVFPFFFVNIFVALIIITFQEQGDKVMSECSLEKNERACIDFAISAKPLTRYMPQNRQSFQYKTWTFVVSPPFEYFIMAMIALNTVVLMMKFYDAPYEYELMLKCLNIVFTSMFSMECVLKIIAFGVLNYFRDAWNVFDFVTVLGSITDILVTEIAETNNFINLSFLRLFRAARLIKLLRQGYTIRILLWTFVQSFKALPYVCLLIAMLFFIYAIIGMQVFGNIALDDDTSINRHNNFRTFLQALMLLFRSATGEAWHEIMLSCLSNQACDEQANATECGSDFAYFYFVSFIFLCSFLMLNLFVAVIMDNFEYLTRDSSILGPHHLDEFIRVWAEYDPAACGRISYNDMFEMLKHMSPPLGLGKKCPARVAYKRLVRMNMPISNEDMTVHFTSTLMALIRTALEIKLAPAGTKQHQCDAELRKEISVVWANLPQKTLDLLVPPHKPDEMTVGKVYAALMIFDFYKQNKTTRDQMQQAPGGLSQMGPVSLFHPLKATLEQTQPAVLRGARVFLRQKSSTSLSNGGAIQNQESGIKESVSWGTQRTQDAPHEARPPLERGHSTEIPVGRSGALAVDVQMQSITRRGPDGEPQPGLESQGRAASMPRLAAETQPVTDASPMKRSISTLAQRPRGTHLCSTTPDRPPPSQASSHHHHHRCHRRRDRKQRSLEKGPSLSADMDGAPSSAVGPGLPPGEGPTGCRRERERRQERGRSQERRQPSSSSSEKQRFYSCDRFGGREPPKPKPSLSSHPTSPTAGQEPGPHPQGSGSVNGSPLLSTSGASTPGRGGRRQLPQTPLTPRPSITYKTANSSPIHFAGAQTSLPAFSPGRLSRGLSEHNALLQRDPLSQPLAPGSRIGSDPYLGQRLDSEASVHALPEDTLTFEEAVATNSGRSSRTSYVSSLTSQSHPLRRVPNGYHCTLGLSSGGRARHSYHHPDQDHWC
T2 sequence (P54290 25-944 partner limits assumed, other chains not shown): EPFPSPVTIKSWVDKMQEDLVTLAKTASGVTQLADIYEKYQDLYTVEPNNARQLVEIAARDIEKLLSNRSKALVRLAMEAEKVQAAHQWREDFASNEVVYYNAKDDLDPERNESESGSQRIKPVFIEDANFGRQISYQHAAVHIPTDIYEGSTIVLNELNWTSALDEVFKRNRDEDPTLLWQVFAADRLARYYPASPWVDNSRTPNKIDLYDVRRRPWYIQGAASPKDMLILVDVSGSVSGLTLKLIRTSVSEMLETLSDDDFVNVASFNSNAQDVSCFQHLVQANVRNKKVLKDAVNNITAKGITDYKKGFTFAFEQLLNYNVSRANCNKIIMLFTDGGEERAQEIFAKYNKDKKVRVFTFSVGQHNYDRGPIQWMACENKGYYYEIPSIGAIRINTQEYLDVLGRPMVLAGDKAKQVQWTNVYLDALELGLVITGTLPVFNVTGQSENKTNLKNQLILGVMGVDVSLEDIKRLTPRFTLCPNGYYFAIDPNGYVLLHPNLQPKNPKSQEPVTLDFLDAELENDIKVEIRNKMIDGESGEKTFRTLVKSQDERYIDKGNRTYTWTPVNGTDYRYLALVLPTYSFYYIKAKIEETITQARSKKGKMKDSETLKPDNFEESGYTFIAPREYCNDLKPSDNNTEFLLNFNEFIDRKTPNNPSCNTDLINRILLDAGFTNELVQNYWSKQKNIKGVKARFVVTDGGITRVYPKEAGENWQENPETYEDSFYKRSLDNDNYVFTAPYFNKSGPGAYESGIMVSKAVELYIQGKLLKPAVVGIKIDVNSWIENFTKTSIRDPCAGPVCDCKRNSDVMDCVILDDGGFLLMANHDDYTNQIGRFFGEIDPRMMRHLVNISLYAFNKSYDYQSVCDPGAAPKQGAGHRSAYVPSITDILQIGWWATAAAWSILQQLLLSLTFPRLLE
T2 sequence (P54290 945-1091 partner limits assumed, other chains not shown): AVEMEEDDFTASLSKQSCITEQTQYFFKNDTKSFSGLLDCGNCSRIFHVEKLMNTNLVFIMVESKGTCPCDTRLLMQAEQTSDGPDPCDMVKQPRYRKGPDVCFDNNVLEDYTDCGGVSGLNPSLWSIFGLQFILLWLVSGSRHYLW
Text: FIG. 3A illustrates an approach for N-type channels without Gβγ coexpression. Exemplar currents activated quickly and were barely facilitated by strong prepulse depolarization (FIG. 3A, left). The slight residual prepulse facilitation reflects basal endogenous Gβγ activation. To estimate open probability, two intermediary parameters were specified. First, to gauge the number of channels in a cell (Nchannel), the channel gating current at the reversal potential for ionic current were isolated (FIG. 3A, middle left) (Jones et al., 1999). The area under this current yields the maximal gating charge Qmax, where Qmax=Nchannel×qmax, and qmax is the maximal gating charge per channel. Second, Gmax for a given cell, the maximal ionic current conductance determined as the slope of the peak current-voltage relation at depolarized potentials were determined (FIG. 3A, middle right, line). Here and throughout, current-voltage relations were determined after a 100 mV prepulse, which transiently relieves all G protein inhibition (Colecraft et al., 2000), thus eliminating these inhibitory effects in the estimate of Gmax. Accordingly, Gmax=Nchannel×Po,max×g, where Po,max is the maximal channel open probability at saturating de-polarization, and g is the conductance of a single open channel. In combination, then, a plot of Gmax versus Qmax for multiple cells ([…]) would describe a linear relation with slope equal to Po,max×g/qmax. Because g and qmax are unchanged by G protein modulation (Colecraft et al., 2001; Jones et al., 1997; Patil et al., 1996), this slope (G/Q=0.44±0.03 nS/fC) is proportional to Po,max . . . FIG. 3B documents the supporting results for N-type channels coexpressed with Gβγ. Gmax determined after prepulse de-polarization, when plotted against Qmax, specifies an identical slope to that without Gβγ (FIG. 3B, right, G/Q=0.43±0.04 nS/fC). […] Free NTB peptide with α1B channels. Initially, an NTB-CFP peptide was employed to visually confirm expression was coexpressed. […] By contrast, coexpressing channels with NTB-CFP and Gβγ produced remarkable effects (FIG. 3D). […] More telling were small ionic current amplitudes despite gating current magnitudes on par with controls (FIG. 3D, middle panels). Consequently, there was a significant ^w6-fold depression of the Gmax-Qmax plot (FIG. 3D, right). If NTB-CFP were simply chelating Gβγ (FIG. 2C), the G/Q slope would be unchanged from control. Instead, the suppression of G/Q indicates constitutive inhibition of channel opening.
Cells were transiently transfected and cultured in 10 cm plates (Brody et al., 1997). For 2+Ca^2+ channels, 8 μg was used of each of cDNAs of the desired a1, rat brain β2a (Perez-Reyes et al., 1992), and rat brain a^28 (Tomlinson et al., 1993) subunits; along with 2 μg T-antigen cDNA. N-type α1B, human origin (NM000718); L-type α1C, rabbit (Wei et al., 1991) (X15539). Gβγ coexpressed with 4 μg each of Gβ1 (Sugimoto et al., 1985) and Gγ2 (Gautam et al., 1990). For coexpression of N-terminal peptides, channel subunit cDNA reduced to 6 μg, while adding 14 μg peptide cDNA. For receptor experiments, 0.5 μg cDNA for m2R (below) applied with other cDNAs.
Whole-cell current records were made with Axopatch 200B (Axon Instruments, Calif.), 1-3 days posttransfection. Pipets, 1.5-3 MΩ before 60-75% series resistance compensation. Internal solution: 135 mM CsMeSO4, 5 mM CsCl, 10 mM EGTA, 10 mM HEPES, 1 mM MgCl2, and 4 mM MgATP. External solution: 150 mM TEAMeSO4, 10 mM HEPES, 2 mM CaCl2, and 1 mM MgCl2. During constitutive inhibition (or as noted for some chimeras), 20 mM BaCl2 was substituted for 2 mM CaCl2, and the resulting solution was diluted 1.08×. To compare across external solutions, a conversion factor of 3.18 was used. Currents and conductances with 20 mM Ba^2+ were thus scaled×1/3.18 to facilitate uniform comparison of values, as if all data had been collected with 2 mM Ca^2+. When applied, conversion is denoted by asterisk (*). […]

[3] = biological target: T3, I-II loop of α1B (I-IIB) (Homo sapiens, UniProt Q00975); experiment: Yeast two-hybrid assay, NT peptides versus I-IIB; assay type: binding; settings: NT segment in pGBKT7, I-IIB in pGADT7
T3 construct: I-IIB(357-482)-pGADT7 & lam-pGBKT7; expressed in transfected cells; host or cells: AH109 yeast
T3 sequence (Q00975 357-482): as the sequence (Q00975 357-482) above
Text: (§1) For yeast two-hybrid assays, a PCR fragment encoding one partner was fused, in-frame, with the GAL4 DNA binding domain (BD) in pGBKT7 (Clontech, Palo Alto, Calif.). The other element was fused, in-frame, with the GAL4 activation domain (AD) in pGADT7. For specific residues, see Supplemental Data (section 2). For electrophysiology, NT peptides lacking fluorophore tag were PCR amplified and cloned in pcDNA3. NTB peptide residues, 1-95; NTC residues, […]. Throughout, all segments subject to PCR or QuikChange were verified in their entirety by sequencing.
(§2) The Matchmaker GAL4 Two-Hybrid System 3 was used (Clontech, Palo Alto, Calif.). AH109 yeast were transformed with pGBKT7/pGADT7-based constructs (Yeastmaker Yeast Transformation System 2 kit, Clontech). After 5-8 days, growth on -leucine/-trytophan plates confirmed transformation of both plasmids. If partners interact, GAL4 BD/AD would complex, activating reporter genes (HIS3, ADE2, lacZ, and MEL1), for which assays are detailed in the Supplemental Data (section 2.1).
(§3) As a ‘medium’ stringency assay, expression of the lacZ gene was tested for encoding β-galactosidase, performing a filter lift with application of blue chromogenic substrate (Clontech-Laboratories, 1999). After the filter lift, original plates were re-grown for 2-3 days at 30° C. Filter paper was then used to replicate colonies onto a high stringency plate (-adenine/-histidine/-leucine/-trytophan). These plates were then incubated at 30° C. for 5-8 days. Survival on high stringency plates indicates production of both adenine and histidine, from transcription of the ADE2 and HIS3 genes, respectively. The percentage of colonies that turned blue in the filter lift assay, along with the percentage of colonies that survived on high stringency plates, was recorded for each pairing. Experiments were repeated at least three times. False positives were controlled for by testing each segment in pGBKT7 against empty pGADT7, and each segment in pGADT7 against lamin C in pGBKT7 (lamin C interacts with few proteins). Average sum of these backgrounds was subtracted from B to produce the net interaction parameter ΔB (FIG. 2).

[4] = biological target: T4, Gβ1 (Bos taurus, UniProt P62871); experiment: Yeast two-hybrid assay, channel fragments versus Gβ1; assay type: binding; settings: Gβ1 in pGADT7, channel fragment in pGBKT7
T4 construct: expressed in transfected cells; host or cells: AH109 yeast
T4 sequence (P62871 whole entry, the tested form may be a part): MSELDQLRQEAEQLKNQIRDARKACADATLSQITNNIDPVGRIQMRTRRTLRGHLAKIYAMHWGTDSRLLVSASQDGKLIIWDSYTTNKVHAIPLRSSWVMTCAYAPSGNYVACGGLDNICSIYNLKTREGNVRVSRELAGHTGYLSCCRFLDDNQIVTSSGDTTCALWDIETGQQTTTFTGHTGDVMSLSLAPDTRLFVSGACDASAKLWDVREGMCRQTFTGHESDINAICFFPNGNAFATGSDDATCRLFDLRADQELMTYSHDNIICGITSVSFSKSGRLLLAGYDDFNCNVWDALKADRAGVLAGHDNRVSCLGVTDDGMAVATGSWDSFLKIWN
Text: as §1, §2
as §3, with “Average sum of these backgrounds was subtracted from B to produce the net interaction parameter ΔB (FIG. 2).” left out

NTB (56-95)—CFP: NTB (56-95) fused to CFP (MALYNPIPVKQNCFTVNRSLFVFSEDNVVRKYAKRITEWP; also: fused to CFP)
FRmax [1]: 2.44
Kd,EFF / affinity for I-IIB (FRET), in words [1]: affinity equivalent to that of full NTB

NTB (45-95): NTB subdomain, residues 45-95 (SEQ ID NO.: 2) (KQSIAQRARTMALYNPIPVKQNCFTVNRSLFVFSEDNVVRKYAKRITEWP; listed as Homo sapiens)
Effect on G/Q slope (Gmax-Qmax relation), with Gβγ [2]: depressed Gmax-Qmax relations to the same extent as did full NTB
Interaction with I-IIB (yeast two-hybrid, ΔB) [3]: Robust ΔB values

NTB (1-44)—CFP: NTB (1-44) fused to CFP (MVRFGDELGGRYGGPGGGERARGGGAGGAGGPGPGGLQPGQRVL; also: fused to CFP)
Kd,EFF / affinity for I-IIB (FRET), in words [1]: no detectable association

B1: NTB (Δ45-55): NTB peptide lacking residues 45-55 (protein)
chain: MVRFGDELGGRYGGPGGGERARGGGAGGAGGPGPGGLQPGQRVLMALYNPIPVKQNCFTVNRSLFVFSEDNVVRKYAKRITEWP
modifications: left off: small tags and cut ends
Effect on G/Q slope (Gmax-Qmax relation), with Gβγ [2]: inter-mediate inhibition
Interaction with I-IIB (yeast two-hybrid, ΔB) [3]: partially attenuated association

B2: NTB [1-55]: residues 1-55 of NTB (protein)
chain: MKLLSSIEQACDICRLKKLKCSKEKPKCAKCLKNNWECRYSPKTKRSPLTRAHLTEVESRLERLEQLFLLIFPREDLDMILKMDSLQDIKALLTGLFVQDNVNKDAVTDRLASVETDMPLTLRQHRISATSSSEESSNKGQRQLTVSMVRFGDELGGRYGGPGGGERARGGGAGGAGGPGPGGLQPGQRVLYKQSIAQRART
Interaction with Gβ1 (yeast two-hybrid) [4]: interacted with Gβ1

B3: NTB-CFP: NTB peptide fused to CFP (protein)
chain: MVRFGDELGGRYGGPGGGERARGGGAGGAGGPGPGGLQPGQRVLYKQSIAQRARTMALYNPIPVKQNCFTVNRSLFVFSEDNVVRKYAKRITEWP
modifications: left off: large carriers
Effect on G/Q slope and currents, without Gβγ ([2]; peptide coexpressed with channels, absent Gβγ): no differences from control
FRmax [1]: 3.66
Kd,EFF / affinity for I-IIB (FRET), in words [1]: comparable to that for an apoCaM/IQ segment interaction
